{"source": "patent EP0702725B1", "key": {"[1]": {"target": "bovine serum albumin (BSA) (bovine) (UniProt P02769)", "sequence (P02769 25-607 limits assumed)": "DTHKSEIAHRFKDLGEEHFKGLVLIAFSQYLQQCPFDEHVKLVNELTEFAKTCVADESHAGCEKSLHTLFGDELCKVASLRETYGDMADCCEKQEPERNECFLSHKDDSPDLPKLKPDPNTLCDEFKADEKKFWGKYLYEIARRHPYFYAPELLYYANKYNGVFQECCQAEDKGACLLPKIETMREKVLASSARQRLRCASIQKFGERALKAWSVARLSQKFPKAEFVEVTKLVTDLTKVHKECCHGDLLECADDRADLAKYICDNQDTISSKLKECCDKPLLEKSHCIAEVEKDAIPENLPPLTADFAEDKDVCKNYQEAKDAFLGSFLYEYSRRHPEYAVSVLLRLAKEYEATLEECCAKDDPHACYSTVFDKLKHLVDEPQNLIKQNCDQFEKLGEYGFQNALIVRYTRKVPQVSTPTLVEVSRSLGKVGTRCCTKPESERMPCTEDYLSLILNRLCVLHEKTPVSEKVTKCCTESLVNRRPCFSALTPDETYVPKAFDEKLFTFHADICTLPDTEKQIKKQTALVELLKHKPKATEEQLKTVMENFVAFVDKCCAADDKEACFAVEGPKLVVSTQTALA", "test": "same ELISA, control wells"}, "[2]": {"target": "PLA2-binding GIF (antigen-binding GIF) from anti-CD3-stimulated human T-cell hybridoma AC5 (human)"}, "[3]": {"target": "recombinant human GIF secreted by COS-1 cells co-transfected with SRα-hcGIF and SRα-hfurin (human)", "test": "absorption on 388F1-Sepharose; titration of GIF bioactivity in the fractions"}, "[4]": {"target": "recombinant human GIF secreted by COS-1 cells co-transfected with SRα-hcGIF and SRα-hfurin (human)", "test": "absorption on 388F1-Sepharose, acid elution; 12H5 GIF bioassay"}, "[5]": {"target": "flow-through fraction from 110BH3-Sepharose of the culture supernatant of anti-CD3-stimulated AC5 cells", "test": "ELISA on wells coated with the flow-through fraction from 110BH3-Sepharose; biotinylated 388F1, amplification system"}}}
{"substance": "monoclonal anti-human GIF antibody 388F1 (ATCC HB 10472)", "values": [{"measurement": "ELISA control (nonspecific binding to BSA-coated wells, OD 410)", "setting": "[1]", "result": 0.1, "unit": "OD 410"}, {"measurement": "ELISA signal (absorption at 490 nm) (absorbance 490 nm)", "setting": "[2]", "result": 0.86}, {"measurement": "GIF activity of the flow-through relative to the eluate fraction", "setting": "[3]", "result": "< 0.1", "unit": "fold"}, {"measurement": "GIF activity recovered in the acid eluate fraction", "setting": "[4]", "result": "> 75", "unit": "%"}, {"measurement": "ELISA signal (absorption at 490 nm) (absorbance 490 nm)", "setting": "[5]", "result": 0.36}]}
